Columns and labels:
[1] = molecular target: GST-Tax_(CACA) (HTLV-1 Tax with C23 and C29 changed to alanine, N-terminal GST fusion) (HTLV-1) (UniProt P03409); assay: BLI; BLItz; GST-Tax covalently bound to an AR2G sensor; UPF1 His-HD proteins in running buffer (300 mM NaCl, 20 mM phosphate, 0.02% Tween 20, 0.1% albumin); 250 s association, 60 s dissociation
[2] = system: T1, UPF1-HD (Homo sapiens), Q92900-2; assay: BLI; settings: BLI: 20 mM HEPES pH 7.5, 150 mM K acetate, 2 mM Mg acetate, 1 mM DTT, 6.3% glycerol, 0.1% NP-40; EMSA: 20 mM MES pH 6.0, 150 mM K acetate, 2 mM DTT, 0.2 ug/ul …
T1 sequence: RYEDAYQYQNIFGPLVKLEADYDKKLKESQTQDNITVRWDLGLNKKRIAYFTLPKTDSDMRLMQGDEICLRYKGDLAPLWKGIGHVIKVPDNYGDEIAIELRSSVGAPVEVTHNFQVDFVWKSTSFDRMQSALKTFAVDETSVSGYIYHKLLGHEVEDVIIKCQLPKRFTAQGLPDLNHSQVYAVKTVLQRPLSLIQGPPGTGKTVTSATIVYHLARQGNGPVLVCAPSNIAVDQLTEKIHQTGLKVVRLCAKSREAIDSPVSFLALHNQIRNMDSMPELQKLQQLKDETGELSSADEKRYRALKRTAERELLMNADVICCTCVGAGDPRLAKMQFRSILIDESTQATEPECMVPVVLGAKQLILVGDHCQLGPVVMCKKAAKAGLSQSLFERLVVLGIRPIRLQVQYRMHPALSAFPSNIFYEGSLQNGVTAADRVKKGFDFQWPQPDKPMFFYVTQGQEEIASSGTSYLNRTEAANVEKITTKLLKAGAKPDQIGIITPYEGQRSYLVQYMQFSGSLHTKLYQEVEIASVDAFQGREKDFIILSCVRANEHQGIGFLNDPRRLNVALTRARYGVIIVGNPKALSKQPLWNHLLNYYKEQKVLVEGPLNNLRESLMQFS

Q: With “UPF1-HD_(R843C), histidine-tagged (from UniProt Q92900-2 295-914) (domain or fragment)” as the substance, how does the fold change of KD against WT [1] read?
A: Its fold change of KD against WT is 3.2 times.

Q: How did the Kd [2] turn out when 5'-biotin 30-mer ssDNA (BLI) was run?
A: The Kd was 8.25 nM.

Source: paper PMC5789848
